Consider five substances from publication PMC6628420.

The experiment addresses CD11b, cellular receptor of LukAB, on PMNs (HL-60 cells differentiated with DMSO) (human (endogenous in HL-60)) (UniProt P11215).
With “LukAB heterodimer LukA D39A / LukB R23E (complex)”, the reversal of the toxicity of 0.42 nM LukABWT on PMNs by the mutant (0.4 pM-13 nM), set up as competition with LukABWT for receptor binding; mutant/WT molar ratio at 50% reversal (mutant/WT molar ratio) was found to be 0.17.
Turning to “LukAB heterodimer LukA D39R / LukB R23E (complex)”, the reversal of the toxicity of 0.42 nM LukABWT on PMNs by the mutant (0.4 pM-13 nM), set up as competition with LukABWT for receptor binding; mutant/WT molar ratio at 50% reversal (mutant/WT molar ratio) was over 30.
The same measure for “LukAB heterodimer LukA wild type / LukB K12A/K19A/R23A (complex)”: over 30; for “LukAB heterodimer LukA wild type / LukB R23E (complex)”: 0.64.
As to “LukAB heterodimer LukA wild type / LukB with the N-terminal 30 residues of HlgB (complex)”, the reversal of the toxicity of 0.42 nM LukABWT on PMNs by the mutant (0.4 pM-13 nM), set up as competition with LukABWT for receptor binding; mutant/WT molar ratio at 50% reversal (mutant/WT molar ratio) stood at 0.18.
